The values below come from patent US5955420, “Rse receptor activation” (Genentech, Inc., dated 1999).

This assay deals with CD4-IgG (human, UniProt P01730). Put plainly: competition in the FBS-mediated CMK11-5 membrane binding assay.

Method: After a 30 min incubation at room temperature, 1 ml of ice cold assay buffer was added to each tube. Then, the membrane associated radioactivity was collected by centrifugation for 4 min at 15000 g, separated from unbound radioactivity by aspiration of the supernatant fluid and counted in a γ counter.

B1: Rse ligand (Rse-L) in fetal bovine serum, unpurified or Q-Sepharose enriched (ligand)
chain: ANTLLEETKKGNLERECIEELCNKEEAREIFENNPETEYFYPKYLGCLGSFRAGLFTAARLSTNAYPDLRSCVNAISDQCNPLPCNEDGFMTCKDGQATFTCICKSGWQGEKCESDINECKDPVNINGGCSQICENTPGSYHCSCKNGFVMLSNKKDCKDVDECVLKPSICGTAVCKNIPGDFECECAEGYKYNPVSKSCDDVDECAENLCAQLCVNYPGGYSCYCDGKKGFKLAQDQKSCEAVPVCLPLDLDKNYELLYLAEQFVGVVLYLKFRLPETTRFSAEFDFRTYDSEGVILYAESSDHSAWFLIALREGKIEIQFKNEKTTKMTTGGKVINDGLWHMVSVEELEQSISVKIAKEAVMNINKPGSLFKPTNGFLETKVYFAGVPRKMENALIRPINPRLDGCIRGWNLMNQGTSGVKEIIQEKQNKHCLVNVEKGSYYPGTGVAQFSINYKNESNPEAWQINVSLNIRPSAGTGVMLALVSDNTVPFALSLVDSATEKLQDILVSVESMVIGRIEAISLCSDQQTFLEIRVNRNNLELSTQLRKDSFHSEDFQRQFAILDEAMKGTVVTYLGGLPDVPFSATPVNAFYQGCMEVNINGVQVDLDEAISKHNDIRAHSCPSVWQKTKHT
As to B1, the binding result was “no binding”.
